Source: the supplement of paper PMC7877785
± gives the uncertainty stated by the source.

Test: self-splicing fitness, log relative to wild type (ln ratio); higher = more splicing; Tetrahymena group I intron in knt gene, E. coli kanamycin selection, DiMSum; sequences stand for … in CUCUCU…GGAGGGAAAAGUUAUCAGGCAUGCACCUGGUAGCUAGUCUUUAAACCAAUAGAUUGCAUCGGUUUAAAAGGCAAGACCGUCAAAUUGCGGGAAAGGGGUCAACAGCCGUUCAGUACCAAGUCUCAGGGGAAACUUUGAGAUGGCCUUGCAAAGGGUAUGGUAAUAAGCUGACGGACAUGGUCCUAACCACGCAGCCAAGUCCUAAGUCAACAGAUCUUCUGUUGAUAUGGAUGCAGUUCACAGACUAAAUGUCGGUCGGGGAAGAUGUAUUCUUCUCAUAAGAUAUAGUCGGACCUCUCCUUAAUGGGAGCUAGCGGAUGAAGUGAUGCAACACUGGAGCCGCUGGGAACUAAUUUGUAUGCGAAAGUAUAUUGAUUAGUUUUGGAGUACUCGUGGUCG
In short: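 Library with all eight P1ex-region intron nucleotides randomised, intron inside the knt kanamycin-resistance gene on pET-22b(+), in E. coli BL21(DE3). Cells grew overnight at 37°C or 30°C on LB agar with or without 25 μg/mL kanamycin (plus 100 μg/mL carbenicillin, 50 μM IPTG, 0.2% rhamnose), in six replicate transformations. Pooled colonies were amplicon-sequenced on Illumina HiSeq 2500. DiMSum fitness is the error-weighted combination of wild-type-normalised replicate fold changes, kanamycin versus none.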

Sequence	self-splicing fitness (ln) (30 °C)	self-splicing fitness (ln) (37 °C)
AGCUAGCAAUAUUACGGGUA	-1.27 ± 0.073	-0.597 ± 0.082
AGCUAGCAAUAUUACGGGUU	-2.74 ± 0.14	-2.12 ± 0.18
AGCUAGCAAUAUUACGUAAA	-3.11 ± 0.19	-1.14 ± 0.16
AGCUAGCAAUAUUACGUUGA	-2.68 ± 0.23	-1.69 ± 0.16
AGGAAGCAAUAUUACGAACG	-1.19 ± 0.14	-0.0957 ± 0.18
AGGAAGCAAUAUUACGACCU	-2.74 ± 0.22	-2.29 ± 0.21
AGGAAGCAAUAUUACGAGUA	-2.59 ± 0.15	-2.21 ± 0.17
AGGAAGCAAUAUUACGAUAC	-3.27 ± 0.26	-2.02 ± 0.2
AGGAAGCAAUAUUACGAUCU	-0.809 ± 0.085	-0.905 ± 0.11
AGGAAGCAAUAUUACGCGGG	-1.85 ± 0.18	-1.67 ± 0.14
AGGAAGCAAUAUUACGCUAG	-2.44 ± 0.42	–
AGGAAGCAAUAUUACGCUUA	-2.41 ± 0.2	-0.908 ± 0.17
AGGAAGCAAUAUUACGGAAG	-2.98 ± 0.25	-2.28 ± 0.39
AGGAAGCAAUAUUACGGAGU	-2.89 ± 0.17	-1.7 ± 0.22
AGGAAGCAAUAUUACGGAUU	-2.3 ± 0.12	-1.55 ± 0.14
AGGAAGCAAUAUUACGGCCA	-0.118 ± 0.14	0.223 ± 0.19
AGGAAGCAAUAUUACGGCGC	-0.231 ± 0.11	-0.104 ± 0.15
AGGAAGCAAUAUUACGGGGG	–	-1.89 ± 0.36
AGGAAGCAAUAUUACGGUGU	-3.33 ± 0.16	-1.48 ± 0.1
AGGAAGCAAUAUUACGUACG	-1.15 ± 0.11	-0.064 ± 0.1
AGGAAGCAAUAUUACGUAGG	-3 ± 0.15	-2.3 ± 0.23
AGGAAGCAAUAUUACGUUGA	–	-1.63 ± 0.46
AGGAAGCAAUAUUACGUUUU	-4.64 ± 0.31	-1.82 ± 0.23
AGGCAGCAAUAUUACGAAAU	-1.8 ± 0.13	-1.34 ± 0.15
AGGCAGCAAUAUUACGAACG	-1.11 ± 0.14	0.48 ± 0.16

Sequence	self-splicing fitness (ln) (30 °C)	self-splicing fitness (ln) (37 °C)
AGGCAGCAAUAUUACGACCA	-0.404 ± 0.11	0.544 ± 0.17
AGGCAGCAAUAUUACGACGC	-0.638 ± 0.12	-0.663 ± 0.14
AGGCAGCAAUAUUACGACUC	-1.65 ± 0.14	-1.01 ± 0.19
AGGCAGCAAUAUUACGAGAG	-3.49 ± 0.15	-2.79 ± 0.15
AGGCAGCAAUAUUACGCACU	-1.3 ± 0.11	-0.863 ± 0.17
AGGCAGCAAUAUUACGCCUU	–	-3.04 ± 0.27
AGGCAGCAAUAUUACGCGCA	-0.635 ± 0.07	-0.0389 ± 0.098
AGGCAGCAAUAUUACGCGGG	-2.65 ± 0.14	-2.55 ± 0.17
AGGCAGCAAUAUUACGCGUA	-0.695 ± 0.09	-0.127 ± 0.095
AGGCAGCAAUAUUACGCUAA	-1.05 ± 0.097	-0.682 ± 0.11
AGGCAGCAAUAUUACGCUGA	-2.21 ± 0.13	-1.84 ± 0.21
AGGCAGCAAUAUUACGGCCA	-1.07 ± 0.15	-0.0424 ± 0.21
AGGCAGCAAUAUUACGGGCA	-1.39 ± 0.2	-0.422 ± 0.17
AGGCAGCAAUAUUACGUGCC	-2.9 ± 0.26	-2.73 ± 0.31
AGGCAGCAAUAUUACGUGGG	-2.95 ± 0.095	-2.97 ± 0.15
AGGCAGCAAUAUUACGUUAC	-3.46 ± 0.2	-2.55 ± 0.31
AGGCAGCAAUAUUACGUUGA	-2.42 ± 0.11	-1.25 ± 0.1
AGGCAGCAAUAUUACGUUUU	-1.59 ± 0.065	-0.435 ± 0.079
AGGGAGCAAUAUUACGAACG	-2.58 ± 0.39	-1.9 ± 0.36
AGGGAGCAAUAUUACGAAGG	-2.19 ± 0.31	–
AGGGAGCAAUAUUACGAGAU	-2.75 ± 0.29	-3.06 ± 0.48
AGGGAGCAAUAUUACGAGGC	-2.51 ± 0.35	-2.59 ± 0.44
AGGGAGCAAUAUUACGCACU	-3.18 ± 0.4	-0.0242 ± 0.24
AGGGAGCAAUAUUACGCGCA	-1.71 ± 0.4	-2.11 ± 0.34
AGGGAGCAAUAUUACGCGGA	-2.2 ± 0.21	-2.68 ± 0.3

Sequence	self-splicing fitness (ln) (30 °C)	self-splicing fitness (ln) (37 °C)
AGGGAGCAAUAUUACGCUGU	-2.11 ± 0.26	-3.01 ± 0.47
AGGGAGCAAUAUUACGGAAC	-3.01 ± 0.38	-2.68 ± 0.41
AGGGAGCAAUAUUACGGACC	-2.79 ± 0.36	-1.37 ± 0.36
AGGGAGCAAUAUUACGGAGA	-2.65 ± 0.4	-2.69 ± 0.32
AGGGAGCAAUAUUACGGCAA	-3.52 ± 0.48	-1.8 ± 0.27
AGGGAGCAAUAUUACGGCCU	-2.43 ± 0.22	-1.41 ± 0.24
AGGGAGCAAUAUUACGGCUA	-2.09 ± 0.21	-2.17 ± 0.18
AGGGAGCAAUAUUACGGGCA	-3.79 ± 0.43	-1.46 ± 0.34
AGGGAGCAAUAUUACGGGCU	-3.05 ± 0.27	-2.49 ± 0.3
AGGGAGCAAUAUUACGGGUC	-4.05 ± 0.3	-3.12 ± 0.22
AGGGAGCAAUAUUACGGUGC	-4.76 ± 0.45	-3.06 ± 0.47
AGGGAGCAAUAUUACGUACC	-2.86 ± 0.33	-1.52 ± 0.29
AGGGAGCAAUAUUACGUCAG	–	-2.97 ± 0.35
AGGGAGCAAUAUUACGUGAU	-3.34 ± 0.25	-2.91 ± 0.26
AGGGAGCAAUAUUACGUGUC	-3.95 ± 0.47	-2.69 ± 0.26
AGGGAGCAAUAUUACGUGUG	-2.78 ± 0.17	-3.07 ± 0.26
AGGGAGCAAUAUUACGUUAU	-3.84 ± 0.34	-2.94 ± 0.25
AGGGAGCAAUAUUACGUUCG	-3.18 ± 0.22	-1.96 ± 0.23
AGGGAGCAAUAUUACGUUCU	-3.19 ± 0.44	–
AGGUAGCAAUAUUACGACCA	0.0772 ± 0.018	0.199 ± 0.038
AGGUAGCAAUAUUACGACGA	-0.363 ± 0.016	-0.00769 ± 0.034
AGGUAGCAAUAUUACGAGCG	-0.808 ± 0.014	-0.435 ± 0.033
AGGUAGCAAUAUUACGAGUG	-2.867 ± 0.019	-1.58 ± 0.034
AGGUAGCAAUAUUACGAUAC	-2.318 ± 0.021	-1.16 ± 0.037
AGGUAGCAAUAUUACGAUGC	-1.62 ± 0.017	-0.828 ± 0.035

Sequence	self-splicing fitness (ln) (30 °C)	self-splicing fitness (ln) (37 °C)
AGGUAGCAAUAUUACGCACC	-2.33 ± 0.031	-1.26 ± 0.042
AGGUAGCAAUAUUACGCGAC	-2.971 ± 0.029	-1.8 ± 0.04
AGGUAGCAAUAUUACGCUCG	-0.57 ± 0.017	-0.241 ± 0.036
AGGUAGCAAUAUUACGCUCU	-2.37 ± 0.024	-1.45 ± 0.038
AGGUAGCAAUAUUACGCUUG	-1.541 ± 0.015	-1.04 ± 0.034
AGGUAGCAAUAUUACGGAUA	-2.53 ± 0.025	-1.6 ± 0.036
AGGUAGCAAUAUUACGUAAA	-2.285 ± 0.018	-1.39 ± 0.034
AGGUAGCAAUAUUACGUAUG	-3.698 ± 0.027	-2.53 ± 0.038
AGGUAGCAAUAUUACGUCCG	-0.127 ± 0.017	0.055 ± 0.036
AGGUAGCAAUAUUACGUCGA	-1.4 ± 0.016	-0.563 ± 0.033
AGGUAGCAAUAUUACGUGAG	-1.02 ± 0.011	-0.588 ± 0.032
AGGUAGCAAUAUUACGUGCG	-0.955 ± 0.014	-0.358 ± 0.033
AGGUAGCAAUAUUACGUGUA	-2.265 ± 0.017	-1.31 ± 0.033
AGGUAGCAAUAUUACGUUAA	-2.881 ± 0.025	-1.91 ± 0.037
AGGUAGCAAUAUUACGUUAG	-3.842 ± 0.029	-2.87 ± 0.042
AGGUAGCAAUAUUACGUUAU	-3.603 ± 0.026	-2.75 ± 0.039
AGGUAGCAAUAUUACGUUGA	-2.893 ± 0.022	-1.61 ± 0.035
AGGUAGCAAUAUUACGUUGU	-3.385 ± 0.02	-1.95 ± 0.035
AGGUAGCAAUAUUACGUUUA	-2.151 ± 0.019	-1.33 ± 0.034
AGUAAGCAAUAUUACGACCC	-1.01 ± 0.47	-0.157 ± 0.35
AGUAAGCAAUAUUACGAGAA	–	-1.21 ± 0.41
AGUAAGCAAUAUUACGAGCA	-0.223 ± 0.1	-0.349 ± 0.11
